These results are taken from the supplement of paper PMC9112550, “Optimization of the antimicrobial peptide Bac7 by deep mutational scanning” (BMC Biology, 2022).
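Also: peptides expressed intracellularly from a pBAD plasmid library in pooled LB shake-flask culture, induced with 0.3% L-arabinose, DNA abundance read by NGS, three biological replicates, DESeq2 with apeglm shrinkage.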

The data set concerns Escherichia coli TOP10. Briefly: shrunken log2 fold change of peptide-encoding DNA abundance (4.5 h post-induction vs induction); higher = less antimicrobial activity (less host growth inhibition). Particulars: time post-induction: 4.5 h; library: site-saturation at positions 5, 18, 19, 20.
For the sequence RRIRQRPPRLPRPRPRPEMHPRP, the “shrunken log2 fold change” value is 0.393.

As to RRIRKRPPRLPRPRPRPFIIPRP, the “shrunken log2 fold change” value was -0.268.

RRIRCRPPRLPRPRPRPKNNPRP: the “shrunken log2 fold change” value is -0.188.

Consider RRIRDRPPRLPRPRPRPQIDPRP, for which the “shrunken log2 fold change” value was -0.0493.

For the sequence RRIRARPPRLPRPRPRPMDIPRP, the “shrunken log2 fold change” value stood at 0.142.

For the sequence RRIRNRPPRLPRPRPRPWPGPRP, the “shrunken log2 fold change” value worked out at 0.281.

As to RRIRERPPRLPRPRPRPEVGPRP, the “shrunken log2 fold change” value worked out at 0.0848.

For RRIRSRPPRLPRPRPRPMRDPRP, the “shrunken log2 fold change” value was determined as 0.0126.

For RRIRRRPPRLPRPRPRPNPDPRP, the “shrunken log2 fold change” value amounted to 0.314.

In the case of RRIRKRPPRLPRPRPRPFMAPRP, the “shrunken log2 fold change” value amounted to 0.0398.

RRIRSRPPRLPRPRPRPRLEPRP: the “shrunken log2 fold change” value was 0.596.

For the sequence RRIRNRPPRLPRPRPRPHAAPRP, the “shrunken log2 fold change” value stood at 0.545.

In the case of RRIRSRPPRLPRPRPRPEDWPRP, the “shrunken log2 fold change” value came to 0.802.

In the case of RRIRPRPPRLPRPRPRPKVFPRP, the “shrunken log2 fold change” value was -0.0552.

With RRIRFRPPRLPRPRPRPWAVPRP, the “shrunken log2 fold change” value was -0.0667.

For the sequence RRIRFRPPRLPRPRPRPKAWPRP, the “shrunken log2 fold change” value worked out at 0.0254.

Take RRIRYRPPRLPRPRPRPHCNPRP: the “shrunken log2 fold change” value is -0.366.

With RRIRMRPPRLPRPRPRPFLYPRP, the “shrunken log2 fold change” value was -0.124.

RRIRNRPPRLPRPRPRPMCIPRP: the “shrunken log2 fold change” value is -0.0106.

Turning to RRIRFRPPRLPRPRPRPYHSPRP, the “shrunken log2 fold change” value is -0.0452.

As for RRIRMRPPRLPRPRPRPDHMPRP, the “shrunken log2 fold change” value worked out at 0.0296.

RRIRFRPPRLPRPRPRPQKTPRP: the “shrunken log2 fold change” value is 0.00435.

Turning to RRIRFRPPRLPRPRPRPKPRPRP, the “shrunken log2 fold change” value worked out at 0.886.

With RRIRYRPPRLPRPRPRPMNNPRP, the “shrunken log2 fold change” value is -1.28.

In the case of RRIRARPPRLPRPRPRPQTTPRP, the “shrunken log2 fold change” value came to 0.768.

Consider RRIRPRPPRLPRPRPRPSLPPRP, for which the “shrunken log2 fold change” value is -0.187.

Consider RRIRARPPRLPRPRPRPSVWPRP, for which the “shrunken log2 fold change” value is -0.0231.

Consider RRIRYRPPRLPRPRPRPFFLPRP, for which the “shrunken log2 fold change” value was -0.763.

For RRIRVRPPRLPRPRPRPGCSPRP, the “shrunken log2 fold change” value amounted to 0.186.

Take RRIRVRPPRLPRPRPRPECQPRP: the “shrunken log2 fold change” value turned out to be 0.353.

On to RRIRSRPPRLPRPRPRPAIHPRP, for which the “shrunken log2 fold change” value is -0.912.

RRIRGRPPRLPRPRPRPSWMPRP: the “shrunken log2 fold change” value was -0.208.

For the sequence RRIRFRPPRLPRPRPRPKFAPRP, the “shrunken log2 fold change” value stood at 0.102.

Regarding RRIRWRPPRLPRPRPRPSYVPRP, the “shrunken log2 fold change” value was -0.651.

On to RRIRFRPPRLPRPRPRPFMRPRP, for which the “shrunken log2 fold change” value was determined as 0.559.

For the sequence RRIRWRPPRLPRPRPRPHRLPRP, the “shrunken log2 fold change” value is -0.0123.

Consider RRIRDRPPRLPRPRPRPKQFPRP, for which the “shrunken log2 fold change” value was -0.00831.

Regarding RRIRPRPPRLPRPRPRPWTSPRP, the “shrunken log2 fold change” value is -0.0224.

With RRIRGRPPRLPRPRPRPMYVPRP, the “shrunken log2 fold change” value was -0.0802.

RRIRERPPRLPRPRPRPRGIPRP: the “shrunken log2 fold change” value was -0.102.

Take RRIRRRPPRLPRPRPRPQLKPRP: the “shrunken log2 fold change” value came out at 0.0988.

Turning to RRIRQRPPRLPRPRPRPMPVPRP, the “shrunken log2 fold change” value is -0.00339.

For the sequence RRIRKRPPRLPRPRPRPGCCPRP, the “shrunken log2 fold change” value was 0.722.

Regarding RRIRVRPPRLPRPRPRPRCRPRP, the “shrunken log2 fold change” value was -0.0394.

On to RRIRRRPPRLPRPRPRPMFSPRP, for which the “shrunken log2 fold change” value was -0.0418.

As to RRIRLRPPRLPRPRPRPEAMPRP, the “shrunken log2 fold change” value came out at 0.284.

Take RRIRCRPPRLPRPRPRPDMCPRP: the “shrunken log2 fold change” value is -0.13.

On to RRIRQRPPRLPRPRPRPDWCPRP, for which the “shrunken log2 fold change” value is -0.229.

Turning to RRIRSRPPRLPRPRPRPWRKPRP, the “shrunken log2 fold change” value turned out to be 0.0156.

Regarding RRIRQRPPRLPRPRPRPYWKPRP, the “shrunken log2 fold change” value turned out to be 0.000139.

Consider RRIRGRPPRLPRPRPRPLCSPRP, for which the “shrunken log2 fold change” value is 0.496.

In the case of RRIRPRPPRLPRPRPRPWCDPRP, the “shrunken log2 fold change” value is -0.301.

Take RRIRFRPPRLPRPRPRPYTDPRP: the “shrunken log2 fold change” value was -0.233.

RRIRDRPPRLPRPRPRPYDDPRP: the “shrunken log2 fold change” value was -0.00157.

With RRIRRRPPRLPRPRPRPIAPPRP, the “shrunken log2 fold change” value was determined as 0.702.

Regarding RRIRNRPPRLPRPRPRPLTWPRP, the “shrunken log2 fold change” value is -0.182.

Consider RRIRGRPPRLPRPRPRPNDKPRP, for which the “shrunken log2 fold change” value amounted to 0.342.

RRIRIRPPRLPRPRPRPSSGPRP: the “shrunken log2 fold change” value was -0.219.

Turning to RRIRRRPPRLPRPRPRPYNHPRP, the “shrunken log2 fold change” value was -0.8.

RRIRLRPPRLPRPRPRPEAEPRP: the “shrunken log2 fold change” value was 0.96.

For RRIRARPPRLPRPRPRPDLQPRP, the “shrunken log2 fold change” value was 0.79.

For RRIRVRPPRLPRPRPRPECTPRP, the “shrunken log2 fold change” value was 0.464.

Consider RRIRYRPPRLPRPRPRPCRIPRP, for which the “shrunken log2 fold change” value was -0.0823.

Regarding RRIRTRPPRLPRPRPRPFEHPRP, the “shrunken log2 fold change” value was -0.32.

Regarding RRIRSRPPRLPRPRPRPSYWPRP, the “shrunken log2 fold change” value was 2.29.

For the sequence RRIRYRPPRLPRPRPRPEKHPRP, the “shrunken log2 fold change” value is -0.322.

In the case of RRIRQRPPRLPRPRPRPVNDPRP, the “shrunken log2 fold change” value is -0.0199.

RRIRIRPPRLPRPRPRPVYSPRP: the “shrunken log2 fold change” value is -0.102.

For the sequence RRIRWRPPRLPRPRPRPWCTPRP, the “shrunken log2 fold change” value was found to be 0.118.

Regarding RRIRNRPPRLPRPRPRPSNWPRP, the “shrunken log2 fold change” value was -0.203.

Take RRIRHRPPRLPRPRPRPSAIPRP: the “shrunken log2 fold change” value was -0.00669.

For RRIRNRPPRLPRPRPRPKASPRP, the “shrunken log2 fold change” value is -0.127.

Take RRIRHRPPRLPRPRPRPPWRPRP: the “shrunken log2 fold change” value was determined as 0.538.

Take RRIRSRPPRLPRPRPRPCNLPRP: the “shrunken log2 fold change” value was -0.561.

In the case of RRIRDRPPRLPRPRPRPLWNPRP, the “shrunken log2 fold change” value was found to be 0.0619.

Turning to RRIRERPPRLPRPRPRPKLMPRP, the “shrunken log2 fold change” value was found to be 0.0215.

On to RRIRIRPPRLPRPRPRPIYMPRP, for which the “shrunken log2 fold change” value is 0.00602.

With RRIRKRPPRLPRPRPRPFDSPRP, the “shrunken log2 fold change” value is -0.0504.

As to RRIRNRPPRLPRPRPRPMLYPRP, the “shrunken log2 fold change” value was -0.318.

Take RRIRARPPRLPRPRPRPPFTPRP: the “shrunken log2 fold change” value stood at 0.3.

As for RRIRFRPPRLPRPRPRPSFVPRP, the “shrunken log2 fold change” value was -0.828.

For RRIRVRPPRLPRPRPRPTMVPRP, the “shrunken log2 fold change” value amounted to 0.0376.

Turning to RRIRKRPPRLPRPRPRPRISPRP, the “shrunken log2 fold change” value is -0.258.

Turning to RRIRTRPPRLPRPRPRPLAGPRP, the “shrunken log2 fold change” value came to 0.0232.

For the sequence RRIRCRPPRLPRPRPRPRTIPRP, the “shrunken log2 fold change” value was -0.154.

Turning to RRIRDRPPRLPRPRPRPYIKPRP, the “shrunken log2 fold change” value is -0.565.

Turning to RRIRERPPRLPRPRPRPFFRPRP, the “shrunken log2 fold change” value was -0.112.

In the case of RRIRGRPPRLPRPRPRPSTPPRP, the “shrunken log2 fold change” value was found to be 0.468.

On to RRIRQRPPRLPRPRPRPFPWPRP, for which the “shrunken log2 fold change” value was -0.0901.

As to RRIRTRPPRLPRPRPRPPAYPRP, the “shrunken log2 fold change” value was -0.0816.

As to RRIRYRPPRLPRPRPRPWGWPRP, the “shrunken log2 fold change” value was -0.0384.
